# In article PMC7017188:
# Molecular target: His-tagged eukaryotic initiation factor 6 (eIF6), full length recombinant (UniProt P56537)
# Assay: AlphaScreen or HTRF; competition: serial dilution of non-biotinylated 60S against the optimised assay (eIF6 75 nM, 60S-Bio 0.5 nM); PBS pH 7.4, 5 mM MgCl2, 0.2% BSA, 0.02% Tween-20; room temperature; normalised between 100% displacement (no eIF6) and 0% displacement
substance,measurement,value
non-biotinylated 60S ribosomal subunit (complex),IC50,0.28 nM
